In PMC11661448:

B1: EFR3A (721 to 791) [human] / TTC7B-FAM126A (1 to 308) [human] (parent)
chain 1: MATKKAGSRLETEIERCRSECQWERIPELVKQLSAKLIANDDMAELLLGESKLEQYLKEHPLRQGASPRGPKPQLTEVRKHLTAALDRGNLKSEFLQESNLIMAKLNYVEGDYKEALNIYARVGLDDLPLTAVPPYRLRVIAEAYATKGLCLEKLPISSSTSNLHVDREQDVITCYEKAGDIALLYLQEIERVILSNIQNRSPKPGPAPHDQELGFFLETGLQRAHVLYFKNGNLTRGVGRFRELLRAVETRTTQNLRMTIARQLAEILLRGMCEQSYWNPLEDPPCQSPLDDPLRKGANTKTYTLTRRARVYSGENIFCPQENTEEALLLLLISESMANRDAVLSRIPEHKSDRLISLQSASVVYDLLTIALGRRGQYEMLSECLERAMKFAFEEFHLWYQFALSLMAAGKSARAVKVLKECIRLKPDDATIPLLAAKLCMGSLHWLEEAEKFAKTVVDVGEKTSEFKAKGYLALGLTYSLQATDASLRGMQEVLQRKALLAFQRAHSLSPTDHQAAFYLALQLAISRQIPEALGYVRQALQLQGDDANSLHLLALLLSAQKHYHDALNIIDMALSEYPENFILLFSKVKLQSLCRGPDEALLTCKHMLQIWKSCYNLTNPSDSGRGSSLLDRTIADRRQLNTITLPDFSDPETGSVHATSVAASRVEQALSEVASSLQSSAPKQGPLHPWMTLAQIWLHAAEVYIGIGKPAEATACTQEAANLFPMSHNVLYMRGQIAELRGSMDEARRWYEEALAISPTHVKSMQRLALILHQLGRYSLAEKILRDAVQVNSTAHEVWNGLGEVLQAQGNDAAATECFLTALELEASSPAVPFTIIPRVL
chain 2: MFTSEKGVVEEWLSEFKTLPETSLPNYATNLKDKSSLVSSLYKVIQEPQSELLEPVCHQLFEFYRSGEEQLLQFTLQFLPELIWCYLAVSASRNVHSSGCIEALLLGVYNLEIVDKQGHTKVLSFTIPSLSKPSVYHEPSSIGSMALTESALSQHGLSKVVYSGPHPQREMLTAQNRFEVLTFLLLCYNAALTYMPSVSLQSLCQICSRICVCGYPRQHVRKYKGISSRIPVSSGFMVQMLTGIYFAFYNGEWDLAQKALDDIIYRAQLELYPEPLLVANAIKASLPHGPMKSNKEGTRCIQVEITPT
chain 3: SNTEEITFEALKKAIDTSGMEEQEKEKRRLVIEKFQKAPFEEIAAQCESKANLLHDRLAQILELTIRPPPS

Variants of: B1
Test: BLI
Settings: with TTC7B-FAM126A (1 to 308) [human]; His-EFR3A loaded on the anti-penta-His tip at 200 nM, TTC7B-FAM126A at 500 nM; 25°C; 20 mM HEPES (pH 7.5), 150 mM NaCl; read off a plot

| response [nm] | Variant |
| --- | --- |
| -0.02 | chain 3 F35A |
| 0.27 | chain 3 K12E |
| 1.5 | chain 3 I61A |
| 0.45 | chain 3 I43A |
| 0.84 | chain 3 F40A |
| 0.17 | chain 3 L11R |
| 0.01 | chain 3 L11A |
| 0.82 | chain 3 K50E |
| 1.3 | chain 3 R57E |

Second part, the variant before the results:

| Variant | response [nm] |
| --- | --- |
| chain 3 A14R | 0.23 |
| chain 3 F8A | 0.47 |

Same assay, conditions: with EFR3A (721 to 791) [human]; His-EFR3A loaded on the anti-penta-His tip at 200 nM, TTC7B-FAM126A at 500 nM; 25°C; 20 mM HEPES (pH 7.5), 150 mM NaCl; read off a plot

| response [nm] | Variant |
| --- | --- |
| 1.4 | chain 1 W699A |
| 1.6 | chain 2 H58E |
| 0.37 | chain 2 F61A |
| 1.2 | chain 1 R539E |
| 0.08 | chain 2 A103R |
| 0.85 | chain 1 L610A |
| -0.07 | chain 1 A702R |
| 1.1 | chain 2 L106F |
